In PMC12416549 (2024):

T1: TNFR1 (Homo sapiens, UniProt P19438)
T1 chain: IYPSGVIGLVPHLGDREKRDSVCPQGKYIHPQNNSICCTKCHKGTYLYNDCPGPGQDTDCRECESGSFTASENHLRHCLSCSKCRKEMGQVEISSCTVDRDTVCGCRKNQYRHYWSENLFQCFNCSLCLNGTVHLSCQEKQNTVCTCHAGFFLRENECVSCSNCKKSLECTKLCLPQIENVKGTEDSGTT


Molecular target: T1, TNFR1
Experiment: yeast display SC50

Row | Binder | apparent Kd (screen) [nM]
1 | E84A (designed binder) MTLQELLREEALRRAEAEAFRYALELLAEKFPEQKEYLLDLAEEIESQIRSLSGVDVEDVRKFLDKEWAWVKELLAEHPAELAAVEAARAARLAELRAEVEAKVAA | 0.718
2 | S51I (designed binder) MTLQELLREEALRRAEAEAFRYALELLAEKFPEQKEYLLDLAEEIESQIRILSGVDVEDVRKFLDKEWAWVKELLAEHPAELAEVEAARAARLAELRAEVEAKVAA | 1.86
3 | L39S (designed binder) MTLQELLREEALRRAEAEAFRYALELLAEKFPEQKEYLSDLAEEIESQIRSLSGVDVEDVRKFLDKEWAWVKELLAEHPAELAEVEAARAARLAELRAEVEAKVAA | 2.25
4 | K103Q (designed binder) MTLQELLREEALRRAEAEAFRYALELLAEKFPEQKEYLLDLAEEIESQIRSLSGVDVEDVRKFLDKEWAWVKELLAEHPAELAEVEAARAARLAELRAEVEAQVAA | 0.539
5 | V57I (designed binder) MTLQELLREEALRRAEAEAFRYALELLAEKFPEQKEYLLDLAEEIESQIRSLSGVDIEDVRKFLDKEWAWVKELLAEHPAELAEVEAARAARLAELRAEVEAKVAA | 2.73
6 | S53T (designed binder) MTLQELLREEALRRAEAEAFRYALELLAEKFPEQKEYLLDLAEEIESQIRSLTGVDVEDVRKFLDKEWAWVKELLAEHPAELAEVEAARAARLAELRAEVEAKVAA | 0.49
7 | V60R (designed binder) MTLQELLREEALRRAEAEAFRYALELLAEKFPEQKEYLLDLAEEIESQIRSLSGVDVEDRRKFLDKEWAWVKELLAEHPAELAEVEAARAARLAELRAEVEAKVAA | 12.5
8 | K72E (designed binder) MTLQELLREEALRRAEAEAFRYALELLAEKFPEQKEYLLDLAEEIESQIRSLSGVDVEDVRKFLDKEWAWVEELLAEHPAELAEVEAARAARLAELRAEVEAKVAA | 0.869
9 | Q4H (designed binder) MTLHELLREEALRRAEAEAFRYALELLAEKFPEQKEYLLDLAEEIESQIRSLSGVDVEDVRKFLDKEWAWVKELLAEHPAELAEVEAARAARLAELRAEVEAKVAA | 0.79
10 | R97C (designed binder) MTLQELLREEALRRAEAEAFRYALELLAEKFPEQKEYLLDLAEEIESQIRSLSGVDVEDVRKFLDKEWAWVKELLAEHPAELAEVEAARAARLAELCAEVEAKVAA | 1.05
11 | R92K (designed binder) MTLQELLREEALRRAEAEAFRYALELLAEKFPEQKEYLLDLAEEIESQIRSLSGVDVEDVRKFLDKEWAWVKELLAEHPAELAEVEAARAAKLAELRAEVEAKVAA | 0.593
12 | L75W (designed binder) MTLQELLREEALRRAEAEAFRYALELLAEKFPEQKEYLLDLAEEIESQIRSLSGVDVEDVRKFLDKEWAWVKELWAEHPAELAEVEAARAARLAELRAEVEAKVAA | 1.16
13 | A87L (designed binder) MTLQELLREEALRRAEAEAFRYALELLAEKFPEQKEYLLDLAEEIESQIRSLSGVDVEDVRKFLDKEWAWVKELLAEHPAELAEVELARAARLAELRAEVEAKVAA | 0.653
14 | Q4A (designed binder) MTLAELLREEALRRAEAEAFRYALELLAEKFPEQKEYLLDLAEEIESQIRSLSGVDVEDVRKFLDKEWAWVKELLAEHPAELAEVEAARAARLAELRAEVEAKVAA | 0.718
15 | K103R (designed binder) MTLQELLREEALRRAEAEAFRYALELLAEKFPEQKEYLLDLAEEIESQIRSLSGVDVEDVRKFLDKEWAWVKELLAEHPAELAEVEAARAARLAELRAEVEARVAA | 0.446
16 | E86L (designed binder) MTLQELLREEALRRAEAEAFRYALELLAEKFPEQKEYLLDLAEEIESQIRSLSGVDVEDVRKFLDKEWAWVKELLAEHPAELAEVLAARAARLAELRAEVEAKVAA | 3
17 | Q4I (designed binder) MTLIELLREEALRRAEAEAFRYALELLAEKFPEQKEYLLDLAEEIESQIRSLSGVDVEDVRKFLDKEWAWVKELLAEHPAELAEVEAARAARLAELRAEVEAKVAA | 0.446
18 | E9H (designed binder) MTLQELLRHEALRRAEAEAFRYALELLAEKFPEQKEYLLDLAEEIESQIRSLSGVDVEDVRKFLDKEWAWVKELLAEHPAELAEVEAARAARLAELRAEVEAKVAA | 0.593

Row | Binder | apparent Kd (screen) [nM]
19 | D59W (designed binder) MTLQELLREEALRRAEAEAFRYALELLAEKFPEQKEYLLDLAEEIESQIRSLSGVDVEWVRKFLDKEWAWVKELLAEHPAELAEVEAARAARLAELRAEVEAKVAA | 1.05
20 | K66D (designed binder) MTLQELLREEALRRAEAEAFRYALELLAEKFPEQKEYLLDLAEEIESQIRSLSGVDVEDVRKFLDDEWAWVKELLAEHPAELAEVEAARAARLAELRAEVEAKVAA | 0.49
21 | D40N (designed binder) MTLQELLREEALRRAEAEAFRYALELLAEKFPEQKEYLLNLAEEIESQIRSLSGVDVEDVRKFLDKEWAWVKELLAEHPAELAEVEAARAARLAELRAEVEAKVAA | 2.48
22 | A105H (designed binder) MTLQELLREEALRRAEAEAFRYALELLAEKFPEQKEYLLDLAEEIESQIRSLSGVDVEDVRKFLDKEWAWVKELLAEHPAELAEVEAARAARLAELRAEVEAKVHA | 0.49
23 | E95A (designed binder) MTLQELLREEALRRAEAEAFRYALELLAEKFPEQKEYLLDLAEEIESQIRSLSGVDVEDVRKFLDKEWAWVKELLAEHPAELAEVEAARAARLAALRAEVEAKVAA | 0.593
24 | L96K (designed binder) MTLQELLREEALRRAEAEAFRYALELLAEKFPEQKEYLLDLAEEIESQIRSLSGVDVEDVRKFLDKEWAWVKELLAEHPAELAEVEAARAARLAEKRAEVEAKVAA | 0.49
25 | E81D (designed binder) MTLQELLREEALRRAEAEAFRYALELLAEKFPEQKEYLLDLAEEIESQIRSLSGVDVEDVRKFLDKEWAWVKELLAEHPADLAEVEAARAARLAELRAEVEAKVAA | 0.718
26 | A76M (designed binder) MTLQELLREEALRRAEAEAFRYALELLAEKFPEQKEYLLDLAEEIESQIRSLSGVDVEDVRKFLDKEWAWVKELLMEHPAELAEVEAARAARLAELRAEVEAKVAA | 0.869
27 | K103C (designed binder) MTLQELLREEALRRAEAEAFRYALELLAEKFPEQKEYLLDLAEEIESQIRSLSGVDVEDVRKFLDKEWAWVKELLAEHPAELAEVEAARAARLAELRAEVEACVAA | 0.539
28 | Q4V (designed binder) MTLVELLREEALRRAEAEAFRYALELLAEKFPEQKEYLLDLAEEIESQIRSLSGVDVEDVRKFLDKEWAWVKELLAEHPAELAEVEAARAARLAELRAEVEAKVAA | 0.49
29 | A28K (designed binder) MTLQELLREEALRRAEAEAFRYALELLKEKFPEQKEYLLDLAEEIESQIRSLSGVDVEDVRKFLDKEWAWVKELLAEHPAELAEVEAARAARLAELRAEVEAKVAA | 10.4
30 | A23L (designed binder) MTLQELLREEALRRAEAEAFRYLLELLAEKFPEQKEYLLDLAEEIESQIRSLSGVDVEDVRKFLDKEWAWVKELLAEHPAELAEVEAARAARLAELRAEVEAKVAA | 0.593
31 | P79Q (designed binder) MTLQELLREEALRRAEAEAFRYALELLAEKFPEQKEYLLDLAEEIESQIRSLSGVDVEDVRKFLDKEWAWVKELLAEHQAELAEVEAARAARLAELRAEVEAKVAA | 0.593
32 | S53E (designed binder) MTLQELLREEALRRAEAEAFRYALELLAEKFPEQKEYLLDLAEEIESQIRSLEGVDVEDVRKFLDKEWAWVKELLAEHPAELAEVEAARAARLAELRAEVEAKVAA | 2.25
33 | V57P (designed binder) MTLQELLREEALRRAEAEAFRYALELLAEKFPEQKEYLLDLAEEIESQIRSLSGVDPEDVRKFLDKEWAWVKELLAEHPAELAEVEAARAARLAELRAEVEAKVAA | 1.54
34 | K66G (designed binder) MTLQELLREEALRRAEAEAFRYALELLAEKFPEQKEYLLDLAEEIESQIRSLSGVDVEDVRKFLDGEWAWVKELLAEHPAELAEVEAARAARLAELRAEVEAKVAA | 0.539
35 | P32S (designed binder) MTLQELLREEALRRAEAEAFRYALELLAEKFSEQKEYLLDLAEEIESQIRSLSGVDVEDVRKFLDKEWAWVKELLAEHPAELAEVEAARAARLAELRAEVEAKVAA | 0.49
